Measured values taken from the supplement of paper PMC9170038.

Legend:
[1] = test system: MS2 coat protein; test: apparent KD of MS2 coat protein, switch ON state; designed switch direction (-1 OFF switch, 1 ON switch): -1; higher = weaker reporter binding; details: FMN input: 0 or 200 uM; Eterna round: R93 (includes R88 designs)
Outline: (§1)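 On-chip transcription from Illumina sequencing clusters produced the designed RNA switches. These were titrated with SNAP-549-labelled MS2 coat protein (twofold steps, 0.7 or 1.5 nM to 3 µM) in 100 mM Tris-HCl pH 7.5, 80 mM KCl, 4 mM MgCl2, with or without constant ligand. The apparent KD given is the per-design median of normalised cluster binding-curve fits.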

[2] = test system: MS2 coat protein; test: apparent KD of MS2 coat protein, switch OFF state (with FMN for OFF switches, without FMN for ON switches); designed switch direction (-1 OFF switch, 1 ON switch): -1; higher = weaker reporter binding; details: FMN input: 0 or 200 uM; Eterna round: R93 (includes R88 designs)
Outline: as §1

Sequence | apparent KD of MS2 coat protein [1] | apparent KD of MS2 coat protein [2]
AAGAACUGAGGAUAUACAAAAUAAAAGAAAAGAAAGAAAGAACAUGAGGAUCACCCAUGUAGAAGGCGGAAGAA [Wahibre Ibiau] | 29.4 nM | 29.1 nM
AAAAAGGGAGGAUAUACGAAACAGGGAAACCUGAAAAGGAGACAUGAGGAUCACCCAUGUAGAAGGCCCAAGAA [Clint Eastwood 64% 4] | 25.3 nM | 53.3 nM
AAAAACGGAGGAUAUACAUGAGGAUCACCCAUGUAAAAAAAAAAAAAGGGAAAAAAAAGUAGAAGGCCGAAAAA [Sekhemrekhutawy Pantjeny] | 39.1 nM | 71.2 nM
CUCAUGUAAGGAUAUAUAUGAAAUGAAGUGAAAGAAAAGAAAUAGAAGGUACAUGAGGAUCACCCAUGUUAGAA [EteRNA is fun!] | 59.2 nM | 38.7 nM
AAAAAGCGAGGAUAUACGAGUCAAAGAAAAGACAAAAGGGAACAUGAGGAUCACCCAUGUAGAAGGCGCAAAAA [Fiskers exclusion D2 62% 2] | 30 nM | 100 nM
AGUUGGCGAGGAUAUACAUGAGGAUCACCCAUGUGAAAGAAAAAAGUGAGAAAGAAAAGUAGAAGGCGCUGACA [73%, Moding Norbert Elias, 2] | 54.7 nM | 181 nM
AACAGUACAGGAUAUACAUGAGGAUCACCCAUGUCACACAAAUAAAACAAAAAUAAAAGUAGAAGGGUACUGGA [Ruby 40] | 24.9 nM | 25.9 nM
AAAAGGGCAGGAUAUACAUGAGGAUCACCCAUGUGAAAAAAAAAAAAAAAAAAAAAGUGUAGAAGGGUCAAAAA [Exclusion 3 - Omei 3] | 55.3 nM | 95.4 nM
AAGAAACAUGAGGAUCACCCAUGUGAGGAUAUCCAAAAGAAAAGAAAAGAAAGAAGAAGGAGAAGGCACAAAGG [Nikare] | 88.5 nM | 159 nM
GAAAAACAUGAGGAUCACCCAUGUAAGGAUAUGCUGAAAAACACGGAAAAACGUGACAGCAGAAGGUACAAAAG [Mat - Exclusion 1 - Eli mod - D94] | 18.3 nM | 40 nM
AAAAAACAUGAGGAUCACCCAUGUGAGGAUAUCUGUAUCCAAAAGGAAGUGUAGGAUCAGAGAAGGCACUAGGA [Power strip] | 40.1 nM | 83.8 nM
AAAGGACGAGGAUAUACAUGAGGAUCACCCAUGUAAAAAACAUAAUAAAAGAACUUAUGUAGAAGGCGUCCAAA [Meechl Ex3 2] | 53.8 nM | 318 nM
AACAUGUGAGGAUAUUAAAGAAAAGAAAAGAAAGAAAAGAAUAAGAAGGCACAUGAGGAUCACCCAUGUAAGAA [EteRNA is fun!] | 32.5 nM | 26.9 nM
AAAAAUGGAGGAUAUACAUGAGGAUCACCCAUGUGUGGGCAUACUAUGUGGGCGUCAGGUAGAAGGCCAAAAAA [Gilly Gone Silly 25 - Jieux - Exclusion 3] | 93.7 nM | 273 nM
AUAGUACAUGAGGAUCACCCAUGUCAGGAUAUUGGAUAUGAAAAAAAAAAAAAGUUAACGAGAAGGGACUAUAA [EX1 Malc#14] | 28.5 nM | 33.6 nM
AACUGACAUGAGGAUCACCCAUGUCAGGAUAUGCAUCUUAGGAAAAAAAAACUAAGAUGCAGAAGGGACAAGGG [Amethyst 48] | 22.7 nM | 33.1 nM
GAAAAGUCAGGAUAUGCGAAGGCGUCUGAUAGACGAGGCUAGCAGAAGGGACAUGAGGAUCACCCAUGUGGAAG [Mat - Exclusion 4 - Eli mod - D90] | 76.5 nM | 157 nM

Sequence | apparent KD of MS2 coat protein [1] | apparent KD of MS2 coat protein [2]
GUGUACAGAGGAUAUACAUGGGCAUGGAAACAUGCAUCCUCACAUGAGGAUCACCCAUGUAGAAGGCUGUACAC [Ex2: 708] | 21.6 nM | 20.9 nM
AAAACUGGAGGAUAUACGAACAUGUCGAAAGACGUGAAGGGACAUGAGGAUCACCCAUGUAGAAGGCUAGAAAA [Mat - Exclusion 2 - JL mod - D72] | 42.5 nM | 58.4 nM
AAGAAGUGAGGAUAUCGAAGACUGUCGAAAAGACAGUCGAACGAGAAGGCACAUGAGGAUCACCCAUGUGGAAA [Marsurpial 65% 5] | 30.7 nM | 36.3 nM
AAGAAGUGAGGAUAUGUCUGUGCGAAAAAAAAAAAGUGCAGACAGAAGGCACAUGAGGAUCACCCAUGUGAAAA [Florian 65% 4] | 21.9 nM | 26.7 nM
AAAUGACUAGGAUAUACAUGAGGAUCACCCAUGUGUAUAAAUAAAUACACAAAAGAAAGUAGAAGGAGUCAAAG [Mat - Exclusion 3 - Mayanna mod - D123] | 20.6 nM | 60.5 nM
GGAGGGCAAGGAUAUACAUGAGGAUCACCCAUGUGAGAGAAAAAAGUGAGAAAGAAAAGUAGAAGGUGCUUUCG [salish99-ex3-130] | 38.8 nM | 47.8 nM
AAGAAUCGAGGAUAUACAUGAGGAUCACCCAUGUAAAAGAAAGAAAAGGGAAAGAAAAGUAGAAGGCGAAAGAA [Userkhaure Setnakht] | 32.8 nM | 35.3 nM
AAGAAACAUGAGGAUCACCCAUGUGAGGAUAUGUAAAAGAAAAGAAAAGAAAGAAGAAACAGAAGGCACAAAGG [Neferkare VII] | 43.1 nM | 48 nM
AAAACGUCAGGAUAUACAGAAGAGAUCACGAAAAAAAAAAAACAUGAGGAUCACCCAUGUAGAAGGGACAAAAA [Ex2 Malc#3] | 117 nM | 136 nM
AAAGUGUGAGGAUAUGUGAAAGGACACGAAAGUGACAAAGAACAGAAGGUACAUGAGGAUCACCCAUGUAAAAA [milkweed 20] | 27.4 nM | 23.5 nM
AACAAGUAAGGAUAUGCUGCUCGUCACAAAAGUGAUGAGUAGCAGAAGGUACAUGAGGAUCACCCAUGUAAAGA [JL eternac mod 16] | 28 nM | 21.1 nM
AUACGCUGAGGAUAUACCGAAACAACAUCCUCGUGUAUAAUACAUGAGGAUCACCCAUGUAGAAGGCAGUAAAA [Usmaan] | 46.2 nM | 85.5 nM
AACUAGUGAGGAUAUACAAGAAUAUAAACAAAAAUGAAGGGACAUGAGGAUCACCCAUGUAGAAGGCACUAACA [Diamond 71] | 34 nM | 106 nM
AAGAAGUGAGGAUAUACAUGAGGAUCACCCAUGUAAAAGAAAGAAGGGAAAGAGAAAAGUAGAAGGCGCAAGAA [Neferibre Psamtik II] | 38.9 nM | 42.1 nM
AAAAAGCAAGGAUAUACAUGAGGAUCACCCAUGUGAAAAAAAACAAUAAGAAGAACAAGUAGAAGGUGCAAAAA [Mod of Ex3 Tesla 1 - Jieux - Exclusion 3] | 19.5 nM | 28.2 nM
AGUUGGCGAGGAUAUACAUGAGGAUCACCCAUGUGAAAUCGAGAAAAAAUAGGGAAAAGUAGAAGGCGCUGACA [Ruby 62] | 22.5 nM | 90.6 nM
ACUAGUACAGGAUAUACAUGAGGAUCACCCAUGUGAGAAUUAAGUGGCGUACCACAAAGUAGAAGGGUACUAGA [Mat - Exclusion 3 - JL mod - D14] | 34.3 nM | 152 nM
